According to the supplement of paper PMC10567573:

B1: TRAF3IP2 (parent)
chain: YGHDYPRAAYQQVIQPALPGQPLP
B2: KRT33B (parent)
chain: YQSYFKTIEELQQKILCSKSENAR

Variants of: B1
Assay: protein stability index of a GFP-peptide fusion (GPS, HEK-293T) (PSI 1-6); higher = more stable
Conditions: c terminus: a fixed tail appended
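Further: lentivirally expressed fusions sorted by FACS into six bins by GFP to DsRed ratio, PSI derived from sequencing read proportions per bin multiplied by bin number.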

Variant | protein stability index
YGHDYPRAAYQQVIQPALPWQPLP [G20W] | 1.49
YGHDYPRAAYQQVIQPALPMQPLP [G20M] | 2.27
YGHVYPRAAYQQVIQPALPGQPLP [D4V] | 2.36
YGHGYPRAAYQQVIQPALPGQPLP [D4G] | 2.05
YGHDYPRAAYQQVITPALPGQPLP [Q15T] | 1.62
YGHDYPRAAYQQVIYPALPGQPLP [Q15Y] | 2.53
YGHDYPRAAYQQVIGPALPGQPLP [Q15G] | 2.42
YGHDYPRAAYQQVIDPALPGQPLP [Q15D] | 2.6
YGHDYPRAAYQQVIKPALPGQPLP [Q15K] | 1.82
YGHDYPRAAYEQVIQPALPGQPLP [Q11E] | 2.09
YGHDYPRAAYAQVIQPALPGQPLP [Q11A] | 2.75
YGHDYPRAAYPQVIQPALPGQPLP [Q11P] | 1.69
YGHDYPRAAYGQVIQPALPGQPLP [Q11G] | 1.79
YGHDYPRAAYTQVIQPALPGQPLP [Q11T] | 3.14
YGHDYPRAAYHQVIQPALPGQPLP [Q11H] | 2.48
YGHDYPRAAYVQVIQPALPGQPLP [Q11V] | 2.31
YGHDYPRAAYQQVIQPADPGQPLP [L18D] | 2.17
YGHDYPRAAYQQVIQPATPGQPLP [L18T] | 1.76
YGHDYPRAAYQQVIQPAPPGQPLP [L18P] | 1.82
YGHDYPRAAYQQVIQPAMPGQPLP [L18M] | 1.9
YGHDYPRAAYQQVIQPAHPGQPLP [L18H] | 1.9
YGHDYPRAAYQQVIQPACPGQPLP [L18C] | 1.86
YGHDTPRAAYQQVIQPALPGQPLP [Y5T] | 3.79

Variant | protein stability index
YGHDKPRAAYQQVIQPALPGQPLP [Y5K] | 3.86
YGHDRPRAAYQQVIQPALPGQPLP [Y5R] | 3.49
YGHDNPRAAYQQVIQPALPGQPLP [Y5N] | 3.73
YGHDYPRAAYQQVIQPALPGGPLP [Q21G] | 1.58
YGHDYPRAAYQQVIQPALPGNPLP [Q21N] | 2.08
YGHDYPRAAYQQVIQPALPGSPLP [Q21S] | 1.99
YGHDYPRAAYQQVIQPALPGHPLP [Q21H] | 1.37
YGHDYPRAAYQQVIQPALPGYPLP [Q21Y] | 1.88
YGHDYPRAAYQQVIQPALPGDPLP [Q21D] | 2.58
YGHDYPRAAYQQVIQPALPGQPEP [L23E] | 1.8
YGHDYPRAAYQQVIQPALPGQPHP [L23H] | 1.59
YGHDYPRAAYQQVIQPALPGQPGP [L23G] | 1.77
YGHDYPRAAYQQVIQPALPGQPIP [L23I] | 2.24
YGHDYPRAAYQQVIQPALPGQPMP [L23M] | 2.59
YGHDYPRAAYQQVIQPALPGQPTP [L23T] | 1.99
YGHDYPRAAYQQVIQPALPGQPRP [L23R] | 2.28
YGHDYPRAAYQQVIQPALPGQPLL [P24L] | 2.84
YGHDYPRAAYQQVIQPALPGQPLH [P24H] | 1.83
YGHDYPRAAYQQVIQPALPGQPLA [P24A] | 2.67
YGHDYPRAAYQQVIQPALPGQPLD [P24D] | 2.45
YGHDYPRAAYQQVIQPALPGQPLW [P24W] | 2.3
YGHDYPRAAYQQVIQPALPGQPLR [P24R] | 1.89

Variants of: B2
Assay: as above
Conditions: c terminus: a fixed tail appended

Variant | protein stability index
YCSYFKTIEELQQKILCSKSENAR [Q2C] | 1.52
YFSYFKTIEELQQKILCSKSENAR [Q2F] | 2.5
YISYFKTIEELQQKILCSKSENAR [Q2I] | 2.63
YASYFKTIEELQQKILCSKSENAR [Q2A] | 2.54
YGSYFKTIEELQQKILCSKSENAR [Q2G] | 2.14
YYSYFKTIEELQQKILCSKSENAR [Q2Y] | 2.16
YRSYFKTIEELQQKILCSKSENAR [Q2R] | 2.63
YDSYFKTIEELQQKILCSKSENAR [Q2D] | 2.98
YHSYFKTIEELQQKILCSKSENAR [Q2H] | 2.01
YKSYFKTIEELQQKILCSKSENAR [Q2K] | 3.17
YWSYFKTIEELQQKILCSKSENAR [Q2W] | 2.15
YNSYFKTIEELQQKILCSKSENAR [Q2N] | 2.16
YPSYFKTIEELQQKILCSKSENAR [Q2P] | 2.77
YESYFKTIEELQQKILCSKSENAR [Q2E] | 3.37
YLSYFKTIEELQQKILCSKSENAR [Q2L] | 2.46
YVSYFKTIEELQQKILCSKSENAR [Q2V] | 2.2
YSSYFKTIEELQQKILCSKSENAR [Q2S] | 2.22
YTSYFKTIEELQQKILCSKSENAR [Q2T] | 1.76
YMSYFKTIEELQQKILCSKSENAR [Q2M] | 2.65
HQSYFKTIEELQQKILCSKSENAR [Y1H] | 3.04
NQSYFKTIEELQQKILCSKSENAR [Y1N] | 3.72
EQSYFKTIEELQQKILCSKSENAR [Y1E] | 3.49
KQSYFKTIEELQQKILCSKSENAR [Y1K] | 2.88
DQSYFKTIEELQQKILCSKSENAR [Y1D] | 4.28
RQSYFKTIEELQQKILCSKSENAR [Y1R] | 3.15

Variant | protein stability index
SQSYFKTIEELQQKILCSKSENAR [Y1S] | 3.62
MQSYFKTIEELQQKILCSKSENAR [Y1M] | 3.08
WQSYFKTIEELQQKILCSKSENAR [Y1W] | 2.98
AQSYFKTIEELQQKILCSKSENAR [Y1A] | 3.35
GQSYFKTIEELQQKILCSKSENAR [Y1G] | 3.08
QQSYFKTIEELQQKILCSKSENAR [Y1Q] | 3.32
CQSYFKTIEELQQKILCSKSENAR [Y1C] | 2.69
PQSYFKTIEELQQKILCSKSENAR [Y1P] | 3.84
VQSYFKTIEELQQKILCSKSENAR [Y1V] | 2.68
FQSYFKTIEELQQKILCSKSENAR [Y1F] | 1.93
LQSYFKTIEELQQKILCSKSENAR [Y1L] | 1.89
TQSYFKTIEELQQKILCSKSENAR [Y1T] | 3.28
IQSYFKTIEELQQKILCSKSENAR [Y1I] | 2.2
YQHYFKTIEELQQKILCSKSENAR [S3H] | 1.59
YQKYFKTIEELQQKILCSKSENAR [S3K] | 1.98
YQAYFKTIEELQQKILCSKSENAR [S3A] | 2.87
YQDYFKTIEELQQKILCSKSENAR [S3D] | 2.18
YQCYFKTIEELQQKILCSKSENAR [S3C] | 2.11
YQEYFKTIEELQQKILCSKSENAR [S3E] | 2.42
YQLYFKTIEELQQKILCSKSENAR [S3L] | 1.96
YQFYFKTIEELQQKILCSKSENAR [S3F] | 1.46
YQMYFKTIEELQQKILCSKSENAR [S3M] | 1.78
YQGYFKTIEELQQKILCSKSENAR [S3G] | 1.33
YQIYFKTIEELQQKILCSKSENAR [S3I] | 1.67
